{
  "source": "patent US20240270846A1",
  "about": "(published 2024)",
  "binders": {"B1": {"name": "GLS3000 G91T one-arm antibody (antibody, human IgG1, kappa, L234A L235A, N297A, name in Kabat numbering)", "light": "DIVMTQSPLSLPVTPGEPASISCRSSQSLVHSNRNTYLHWYQQKPGQAPRLLIYKVSNRFSGVPDRFSGSGSGTDFTLKISRVEAEDVGVYYCGQTTQVPYTFGQGTKLEIKRTVAAPSVFIFPPSDEQLKSGTASVVCLLNNFYPREAKVQWKVDNALQSGNSQESVTEQDSKDSTYSLSSTLTLSKADYEKHKVYACEVTHQGLSSPVTKSFNRGEC", "heavy": "QVQLVESGGGVVQPGRSLRLSCAASGFTFSNAWMHWVRQAPGKGLEWVAQIKAKSNNYATYYAESVKGRFTISRDDSKNSLYLQMNSLKTEDTAVYYCRYVHYGAYYGVDAWGQGTTVTVSSASTKGPSVFPLAPSSKSTSGGTAALGCLVKDYFPEPVTVSWNSGALTSGVHTFPAVLQSSGLYSLSSVVTVPSSSLGTQTYICNVNHKPSNTKVDKKVEPKSCDKTHTCPPCPAPEAAGGPSVFLFPPKPKDTLMISRTPEVTCVVVDVSHEDPEVKFNWYVDGVEVHNAKTKPREEQYASTYRVVSVLTVLHQDWLNGKEYKCKVSNKALPAPIEKTISKAKGQPREPQVYTLPPSRCELTKNQVSLSCAVKGFYPSDIAVEWESNGQPENNYKTTPPVLDSDGSFFLVSKLTVDKSRWQQGNVFSCSVMHEALHNHYTQKSLSLSPDYKDDDDK", "chain": "EPKSSDKTHTCPPCPAPELLGGPSVFLFPPKPKDTLMISRTPEVTCVVVDVSHEDPEVKFNWYVDGVEVHNAKTKPREEQYNSTYRVVSVLTVLHQDWLNGKEYKCKVSNKALPAPIEKTISKAKGQPREPQVCTLPPSRDELTKNQVSLWCLVKGFYPSDIAVEWESNGQPENNYKTTPPVLDSDGSFFLYSKLTVDKSRWQQGNVFSCSVMHEALHNRYTQKSLSLSP"}, "B2": {"name": "GLS3000 H34E one-arm antibody (antibody, human IgG1, kappa, L234A L235A, N297A, name in Kabat numbering)", "light": "DIVMTQSPLSLPVTPGEPASISCRSSQSLVHSNRNTYLEWYQQKPGQAPRLLIYKVSNRFSGVPDRFSGSGSGTDFTLKISRVEAEDVGVYYCGQGTQVPYTFGQGTKLEIKRTVAAPSVFIFPPSDEQLKSGTASVVCLLNNFYPREAKVQWKVDNALQSGNSQESVTEQDSKDSTYSLSSTLTLSKADYEKHKVYACEVTHQGLSSPVTKSFNRGEC", "heavy": "QVQLVESGGGVVQPGRSLRLSCAASGFTFSNAWMHWVRQAPGKGLEWVAQIKAKSNNYATYYAESVKGRFTISRDDSKNSLYLQMNSLKTEDTAVYYCRYVHYGAYYGVDAWGQGTTVTVSSASTKGPSVFPLAPSSKSTSGGTAALGCLVKDYFPEPVTVSWNSGALTSGVHTFPAVLQSSGLYSLSSVVTVPSSSLGTQTYICNVNHKPSNTKVDKKVEPKSCDKTHTCPPCPAPEAAGGPSVFLFPPKPKDTLMISRTPEVTCVVVDVSHEDPEVKFNWYVDGVEVHNAKTKPREEQYASTYRVVSVLTVLHQDWLNGKEYKCKVSNKALPAPIEKTISKAKGQPREPQVYTLPPSRCELTKNQVSLSCAVKGFYPSDIAVEWESNGQPENNYKTTPPVLDSDGSFFLVSKLTVDKSRWQQGNVFSCSVMHEALHNHYTQKSLSLSPDYKDDDDK", "chain": "EPKSSDKTHTCPPCPAPELLGGPSVFLFPPKPKDTLMISRTPEVTCVVVDVSHEDPEVKFNWYVDGVEVHNAKTKPREEQYNSTYRVVSVLTVLHQDWLNGKEYKCKVSNKALPAPIEKTISKAKGQPREPQVCTLPPSRDELTKNQVSLWCLVKGFYPSDIAVEWESNGQPENNYKTTPPVLDSDGSFFLYSKLTVDKSRWQQGNVFSCSVMHEALHNRYTQKSLSLSP"}, "B3": {"name": "GLS3000 H34K one-arm antibody (antibody, human IgG1, kappa, L234A L235A, N297A, name in Kabat numbering)", "light": "DIVMTQSPLSLPVTPGEPASISCRSSQSLVHSNRNTYLKWYQQKPGQAPRLLIYKVSNRFSGVPDRFSGSGSGTDFTLKISRVEAEDVGVYYCGQGTQVPYTFGQGTKLEIKRTVAAPSVFIFPPSDEQLKSGTASVVCLLNNFYPREAKVQWKVDNALQSGNSQESVTEQDSKDSTYSLSSTLTLSKADYEKHKVYACEVTHQGLSSPVTKSFNRGEC", "heavy": "QVQLVESGGGVVQPGRSLRLSCAASGFTFSNAWMHWVRQAPGKGLEWVAQIKAKSNNYATYYAESVKGRFTISRDDSKNSLYLQMNSLKTEDTAVYYCRYVHYGAYYGVDAWGQGTTVTVSSASTKGPSVFPLAPSSKSTSGGTAALGCLVKDYFPEPVTVSWNSGALTSGVHTFPAVLQSSGLYSLSSVVTVPSSSLGTQTYICNVNHKPSNTKVDKKVEPKSCDKTHTCPPCPAPEAAGGPSVFLFPPKPKDTLMISRTPEVTCVVVDVSHEDPEVKFNWYVDGVEVHNAKTKPREEQYASTYRVVSVLTVLHQDWLNGKEYKCKVSNKALPAPIEKTISKAKGQPREPQVYTLPPSRCELTKNQVSLSCAVKGFYPSDIAVEWESNGQPENNYKTTPPVLDSDGSFFLVSKLTVDKSRWQQGNVFSCSVMHEALHNHYTQKSLSLSPDYKDDDDK", "chain": "EPKSSDKTHTCPPCPAPELLGGPSVFLFPPKPKDTLMISRTPEVTCVVVDVSHEDPEVKFNWYVDGVEVHNAKTKPREEQYNSTYRVVSVLTVLHQDWLNGKEYKCKVSNKALPAPIEKTISKAKGQPREPQVCTLPPSRDELTKNQVSLWCLVKGFYPSDIAVEWESNGQPENNYKTTPPVLDSDGSFFLYSKLTVDKSRWQQGNVFSCSVMHEALHNRYTQKSLSLSP"}, "B4": {"name": "GLS3000 H34G one-arm antibody (antibody, human IgG1, kappa, L234A L235A, N297A, name in Kabat numbering)", "light": "DIVMTQSPLSLPVTPGEPASISCRSSQSLVHSNRNTYLGWYQQKPGQAPRLLIYKVSNRFSGVPDRFSGSGSGTDFTLKISRVEAEDVGVYYCGQGTQVPYTFGQGTKLEIKRTVAAPSVFIFPPSDEQLKSGTASVVCLLNNFYPREAKVQWKVDNALQSGNSQESVTEQDSKDSTYSLSSTLTLSKADYEKHKVYACEVTHQGLSSPVTKSFNRGEC", "heavy": "QVQLVESGGGVVQPGRSLRLSCAASGFTFSNAWMHWVRQAPGKGLEWVAQIKAKSNNYATYYAESVKGRFTISRDDSKNSLYLQMNSLKTEDTAVYYCRYVHYGAYYGVDAWGQGTTVTVSSASTKGPSVFPLAPSSKSTSGGTAALGCLVKDYFPEPVTVSWNSGALTSGVHTFPAVLQSSGLYSLSSVVTVPSSSLGTQTYICNVNHKPSNTKVDKKVEPKSCDKTHTCPPCPAPEAAGGPSVFLFPPKPKDTLMISRTPEVTCVVVDVSHEDPEVKFNWYVDGVEVHNAKTKPREEQYASTYRVVSVLTVLHQDWLNGKEYKCKVSNKALPAPIEKTISKAKGQPREPQVYTLPPSRCELTKNQVSLSCAVKGFYPSDIAVEWESNGQPENNYKTTPPVLDSDGSFFLVSKLTVDKSRWQQGNVFSCSVMHEALHNHYTQKSLSLSPDYKDDDDK", "chain": "EPKSSDKTHTCPPCPAPELLGGPSVFLFPPKPKDTLMISRTPEVTCVVVDVSHEDPEVKFNWYVDGVEVHNAKTKPREEQYNSTYRVVSVLTVLHQDWLNGKEYKCKVSNKALPAPIEKTISKAKGQPREPQVCTLPPSRDELTKNQVSLWCLVKGFYPSDIAVEWESNGQPENNYKTTPPVLDSDGSFFLYSKLTVDKSRWQQGNVFSCSVMHEALHNRYTQKSLSLSP"}, "B5": {"name": "GLS3000 H34I one-arm antibody (antibody, human IgG1, kappa, L234A L235A, N297A, name in Kabat numbering)", "light": "DIVMTQSPLSLPVTPGEPASISCRSSQSLVHSNRNTYLIWYQQKPGQAPRLLIYKVSNRFSGVPDRFSGSGSGTDFTLKISRVEAEDVGVYYCGQGTQVPYTFGQGTKLEIKRTVAAPSVFIFPPSDEQLKSGTASVVCLLNNFYPREAKVQWKVDNALQSGNSQESVTEQDSKDSTYSLSSTLTLSKADYEKHKVYACEVTHQGLSSPVTKSFNRGEC", "heavy": "QVQLVESGGGVVQPGRSLRLSCAASGFTFSNAWMHWVRQAPGKGLEWVAQIKAKSNNYATYYAESVKGRFTISRDDSKNSLYLQMNSLKTEDTAVYYCRYVHYGAYYGVDAWGQGTTVTVSSASTKGPSVFPLAPSSKSTSGGTAALGCLVKDYFPEPVTVSWNSGALTSGVHTFPAVLQSSGLYSLSSVVTVPSSSLGTQTYICNVNHKPSNTKVDKKVEPKSCDKTHTCPPCPAPEAAGGPSVFLFPPKPKDTLMISRTPEVTCVVVDVSHEDPEVKFNWYVDGVEVHNAKTKPREEQYASTYRVVSVLTVLHQDWLNGKEYKCKVSNKALPAPIEKTISKAKGQPREPQVYTLPPSRCELTKNQVSLSCAVKGFYPSDIAVEWESNGQPENNYKTTPPVLDSDGSFFLVSKLTVDKSRWQQGNVFSCSVMHEALHNHYTQKSLSLSPDYKDDDDK", "chain": "EPKSSDKTHTCPPCPAPELLGGPSVFLFPPKPKDTLMISRTPEVTCVVVDVSHEDPEVKFNWYVDGVEVHNAKTKPREEQYNSTYRVVSVLTVLHQDWLNGKEYKCKVSNKALPAPIEKTISKAKGQPREPQVCTLPPSRDELTKNQVSLWCLVKGFYPSDIAVEWESNGQPENNYKTTPPVLDSDGSFFLYSKLTVDKSRWQQGNVFSCSVMHEALHNRYTQKSLSLSP"}, "B6": {"name": "GLS3000 H34F one-arm antibody (antibody, human IgG1, kappa, L234A L235A, N297A, name in Kabat numbering)", "light": "DIVMTQSPLSLPVTPGEPASISCRSSQSLVHSNRNTYLFWYQQKPGQAPRLLIYKVSNRFSGVPDRFSGSGSGTDFTLKISRVEAEDVGVYYCGQGTQVPYTFGQGTKLEIKRTVAAPSVFIFPPSDEQLKSGTASVVCLLNNFYPREAKVQWKVDNALQSGNSQESVTEQDSKDSTYSLSSTLTLSKADYEKHKVYACEVTHQGLSSPVTKSFNRGEC", "heavy": "QVQLVESGGGVVQPGRSLRLSCAASGFTFSNAWMHWVRQAPGKGLEWVAQIKAKSNNYATYYAESVKGRFTISRDDSKNSLYLQMNSLKTEDTAVYYCRYVHYGAYYGVDAWGQGTTVTVSSASTKGPSVFPLAPSSKSTSGGTAALGCLVKDYFPEPVTVSWNSGALTSGVHTFPAVLQSSGLYSLSSVVTVPSSSLGTQTYICNVNHKPSNTKVDKKVEPKSCDKTHTCPPCPAPEAAGGPSVFLFPPKPKDTLMISRTPEVTCVVVDVSHEDPEVKFNWYVDGVEVHNAKTKPREEQYASTYRVVSVLTVLHQDWLNGKEYKCKVSNKALPAPIEKTISKAKGQPREPQVYTLPPSRCELTKNQVSLSCAVKGFYPSDIAVEWESNGQPENNYKTTPPVLDSDGSFFLVSKLTVDKSRWQQGNVFSCSVMHEALHNHYTQKSLSLSPDYKDDDDK", "chain": "EPKSSDKTHTCPPCPAPELLGGPSVFLFPPKPKDTLMISRTPEVTCVVVDVSHEDPEVKFNWYVDGVEVHNAKTKPREEQYNSTYRVVSVLTVLHQDWLNGKEYKCKVSNKALPAPIEKTISKAKGQPREPQVCTLPPSRDELTKNQVSLWCLVKGFYPSDIAVEWESNGQPENNYKTTPPVLDSDGSFFLYSKLTVDKSRWQQGNVFSCSVMHEALHNRYTQKSLSLSP"}},
  "data": [
    {"molecular_target": "T1, CD3 epsilon homodimer protein (UniProt P07766 23-126)", "T1 construct": "Construct of the homodimer is not described; also called CD3 (CD3 epsilon)", "T1 sequence (P07766 23-126)": "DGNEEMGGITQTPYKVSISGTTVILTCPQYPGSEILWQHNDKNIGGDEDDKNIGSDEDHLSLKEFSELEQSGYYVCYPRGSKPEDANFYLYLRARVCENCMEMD", "experiment": "SPR Biacore T200, CD3e homodimer on chip, antibody analyte;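 also: CD3 epsilon homodimer amine-coupled on CM4 sensor chip, antibodies injected as analyte at 25 °C in HBS-EP+, ratio ≥0.8 taken as binding retained versus unaltered parent antibody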", "values": [
      {"binder": "B1", "ratio of amounts bound (altered form/GLS3000)": 0.26},
      {"binder": "B2", "ratio of amounts bound (altered form/GLS3000)": 0.23},
      {"binder": "B3", "ratio of amounts bound (altered form/GLS3000)": 2.17},
      {"binder": "B4", "ratio of amounts bound (altered form/GLS3000)": 1.02},
      {"binder": "B5", "ratio of amounts bound (altered form/GLS3000)": 0.65},
      {"binder": "B6", "ratio of amounts bound (altered form/GLS3000)": 0.27}
    ]}
  ]
}
